In the supplement of paper PMC10567573:

B1: TRIM15 (parent)
chain: LSQMGAQSSGKILLCPLCQEEEQA
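Also: lentivirally expressed fusions sorted by FACS into six bins by GFP to DsRed ratio, PSI derived from sequencing read proportions per bin multiplied by bin number.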

Variants of: B1
Assay: protein stability index of a GFP-peptide fusion (GPS, HEK-293T) (PSI 1-6); higher = more stable
Settings: c terminus: a fixed tail appended
Variant LSQMGAQSSGGILLCPLCQEEEQA [K11G] has a protein stability index of 2.27.
LSQMGAQNSGKILLCPLCQEEEQA [S8N] showed a protein stability index of 3.82.
With LSQMGAQGSGKILLCPLCQEEEQA [S8G] the protein stability index was 3.93.
Variant LSQMGAQSSGKILLCPLCQLEEQA [E20L] has a protein stability index of 2.82.
Variant LSQMGAQSSGKILLCPLCQDEEQA [E20D] has a protein stability index of 4.27.
Work on LSQMGAQSSGKILLCPLCQMEEQA [E20M] yielded a protein stability index of 2.73.
Variant LSQMGAQSSGKILLCPLCQCEEQA [E20C] has a protein stability index of 2.44.
Work on LSQMGAQSSGKILLCPLCQHEEQA [E20H] yielded a protein stability index of 2.65.
With LSQMGAQSSGKILLCPLCQYEEQA [E20Y] the protein stability index was 2.01.
With LSQMGAQSSGKILLCPLCQSEEQA [E20S] the protein stability index was 2.64.
With LSQMGAQSSGKILLCPLCQAEEQA [E20A] the protein stability index was 3.49.
With LSQMGAQSKGKILLCPLCQEEEQA [S9K] the protein stability index was 3.78.
LSQMGAQSNGKILLCPLCQEEEQA [S9N] showed a protein stability index of 3.
Work on LSQMGAQSAGKILLCPLCQEEEQA [S9A] yielded a protein stability index of 3.07.
LSQMGAQSDGKILLCPLCQEEEQA [S9D] gave a protein stability index of 3.7.
For LMQMGAQSSGKILLCPLCQEEEQA [S2M], the protein stability index was 3.58.
With LKQMGAQSSGKILLCPLCQEEEQA [S2K] the protein stability index was 3.14.
For LAQMGAQSSGKILLCPLCQEEEQA [S2A], the protein stability index was 2.6.
In the case of LHQMGAQSSGKILLCPLCQEEEQA [S2H], the protein stability index is reported as 3.43.
In the case of LIQMGAQSSGKILLCPLCQEEEQA [S2I], the protein stability index is reported as 1.9.
For LDQMGAQSSGKILLCPLCQEEEQA [S2D], the protein stability index was 5.08.
Work on LSQMGAQSSGKILLCPLCQEEEAA [Q23A] yielded a protein stability index of 2.89.
LSQMGAQSSGKILLCPLCQEEENA [Q23N] gave a protein stability index of 3.67.
LSQMGAQSSGKILLCPLCQEEEMA [Q23M] showed a protein stability index of 3.31.
Work on LSQMGAQSSGKILLCPLCQEEEVA [Q23V] yielded a protein stability index of 3.11.
In the case of LSQMGAQSSGKILLCPLCQEEEWA [Q23W], the protein stability index is reported as 3.56.
Variant LSQMGAQSSGKILLCPLCQEEEFA [Q23F] has a protein stability index of 2.96.
Variant LSQMGAQSSGKILLCMLCQEEEQA [P16M] has a protein stability index of 3.98.
Variant LSQMGAQSSGKILLCLLCQEEEQA [P16L] has a protein stability index of 3.37.
Variant LSQMGAQSSGKILLCVLCQEEEQA [P16V] has a protein stability index of 3.29.
LSQMGAQSSGKILLCCLCQEEEQA [P16C] gave a protein stability index of 2.59.
Variant LSQMGAQSSGKILLCKLCQEEEQA [P16K] has a protein stability index of 4.19.
Variant LSQMGAQSSGKILLCRLCQEEEQA [P16R] has a protein stability index of 3.39.
LSNMGAQSSGKILLCPLCQEEEQA [Q3N] gave a protein stability index of 3.55.
Variant LSEMGAQSSGKILLCPLCQEEEQA [Q3E] has a protein stability index of 3.68.
LSHMGAQSSGKILLCPLCQEEEQA [Q3H] gave a protein stability index of 3.95.
LSVMGAQSSGKILLCPLCQEEEQA [Q3V] showed a protein stability index of 2.81.
Variant LSYMGAQSSGKILLCPLCQEEEQA [Q3Y] has a protein stability index of 3.24.
For LSMMGAQSSGKILLCPLCQEEEQA [Q3M], the protein stability index was 2.96.
Variant LSQMGAQSSGKILHCPLCQEEEQA [L14H] has a protein stability index of 3.36.
Work on LSQMGAQSSGKILRCPLCQEEEQA [L14R] yielded a protein stability index of 4.15.
With LSQMGAQSSGKILACPLCQEEEQA [L14A] the protein stability index was 5.21.
With LSQMGAQSSGKILWCPLCQEEEQA [L14W] the protein stability index was 2.93.
Variant LSQMGAQSSGKILFCPLCQEEEQA [L14F] has a protein stability index of 3.59.
With LSQMGAQSSGKILTCPLCQEEEQA [L14T] the protein stability index was 4.66.
Variant LSQMGAQSSGKILDCPLCQEEEQA [L14D] has a protein stability index of 4.72.
For LSQMGAQSSGKILSCPLCQEEEQA [L14S], the protein stability index was 4.72.
In the case of LSQMGAQSSGKQLLCPLCQEEEQA [I12Q], the protein stability index is reported as 4.27.
Variant LSQMGAQSSGKKLLCPLCQEEEQA [I12K] has a protein stability index of 4.04.
Work on LSQMGAQSSGKVLLCPLCQEEEQA [I12V] yielded a protein stability index of 4.5.
In the case of LSQMGAQSSGKELLCPLCQEEEQA [I12E], the protein stability index is reported as 3.56.
In the case of LSQMGAQSSGKFLLCPLCQEEEQA [I12F], the protein stability index is reported as 3.52.
For LSQMGAQSSGKILLCPLCKEEEQA [Q19K], the protein stability index was 3.46.
Variant LSQMGAQSSGKILLCPLCVEEEQA [Q19V] has a protein stability index of 4.04.
In the case of LSQMGAQSSGKILLCPLCAEEEQA [Q19A], the protein stability index is reported as 4.35.
LSQMGAQSSGKILLCPLCFEEEQA [Q19F] showed a protein stability index of 3.62.
LSQMGAQSSGKILLCPLCNEEEQA [Q19N] showed a protein stability index of 3.57.
Work on LSQMGAQSSGKILLCPLCDEEEQA [Q19D] yielded a protein stability index of 4.16.
In the case of LSQMGAQSSGKILLCPLCHEEEQA [Q19H], the protein stability index is reported as 3.24.
Variant LSQMGAQSSGKILLCPLCSEEEQA [Q19S] has a protein stability index of 3.23.
For LSQMGAQSSGKILLCPLCGEEEQA [Q19G], the protein stability index was 3.98.
For LSQMGAQSSGKILLCPLCMEEEQA [Q19M], the protein stability index was 3.19.
In the case of LSQMGAQSSGKILLCPLCPEEEQA [Q19P], the protein stability index is reported as 4.42.
For LSQMGAQSSGKILLCPLCEEEEQA [Q19E], the protein stability index was 4.01.
Variant LSQEGAQSSGKILLCPLCQEEEQA [M4E] has a protein stability index of 3.94.
For LSQFGAQSSGKILLCPLCQEEEQA [M4F], the protein stability index was 3.26.
For LSQYGAQSSGKILLCPLCQEEEQA [M4Y], the protein stability index was 3.76.
For LSQRGAQSSGKILLCPLCQEEEQA [M4R], the protein stability index was 3.92.
With LSQCGAQSSGKILLCPLCQEEEQA [M4C] the protein stability index was 4.13.
LSQMGAQSSGKILLCPLCQEEAQA [E22A] showed a protein stability index of 4.08.
With LSQMGAQSSGKILLCPLCQEEQQA [E22Q] the protein stability index was 3.2.
In the case of LSQMGAQSSGKILLCPLCQEEHQA [E22H], the protein stability index is reported as 3.67.
LSQMGAQSSGKILLCPLCQEEMQA [E22M] gave a protein stability index of 2.56.
For LSQMGAQSSGKILLCPLCQEESQA [E22S], the protein stability index was 2.89.
LSQMGAQSSGKILLCPLCQEEIQA [E22I] gave a protein stability index of 2.63.
With LSQMGAQSSGKILLCPLCQEEDQA [E22D] the protein stability index was 3.41.
With LSQMGAQSSGKILLCPLCQEHEQA [E21H] the protein stability index was 3.31.
With LSQMGAQSSGKILLCPLCQEPEQA [E21P] the protein stability index was 3.36.
Work on LSQMGAQSSGKILLCPLCQEREQA [E21R] yielded a protein stability index of 2.48.
Variant LSQMGAQSSGKILLCPLCQEDEQA [E21D] has a protein stability index of 3.36.
For LSQMGAQSSGKILLCPLCQEVEQA [E21V], the protein stability index was 3.08.
Variant FSQMGAQSSGKILLCPLCQEEEQA [L1F] has a protein stability index of 2.73.
In the case of VSQMGAQSSGKILLCPLCQEEEQA [L1V], the protein stability index is reported as 3.97.
ASQMGAQSSGKILLCPLCQEEEQA [L1A] gave a protein stability index of 3.1.
In the case of PSQMGAQSSGKILLCPLCQEEEQA [L1P], the protein stability index is reported as 3.44.
Variant LSQMGAQSSGKILLCPLCQEEEQI [A24I] has a protein stability index of 3.87.
Variant LSQMGAQSSGKILLCPLCQEEEQF [A24F] has a protein stability index of 2.55.
LSQMGAQSSGKILLCPLCQEEEQV [A24V] showed a protein stability index of 3.28.
LSQMGAQSSGKILLCPLCQEEEQQ [A24Q] gave a protein stability index of 4.37.
For LSQMGAQSSGKIRLCPLCQEEEQA [L13R], the protein stability index was 4.71.
For LSQMGAQSSGKIFLCPLCQEEEQA [L13F], the protein stability index was 4.09.
For LSQMGAQSSGKIALCPLCQEEEQA [L13A], the protein stability index was 4.87.
In the case of LSQMGAQSSGKIDLCPLCQEEEQA [L13D], the protein stability index is reported as 4.5.
LSQMGAQSSGKISLCPLCQEEEQA [L13S] gave a protein stability index of 4.5.
